{
  "source": "patent EP4703474A1",
  "about": "“ANTI-LRRC15 ANTIBODY” (priority 2023, dated 2024)",
  "key": {"[1]": {"test_system": "LRRC15-positive human melanoma cell line Hs294T", "assay": "In vitro cell growth inhibitory activity (CellTiter-Glo 2.0)", "format": "cell-based", "conditions": "20 ng/mL TGFβ1-containing medium, 0.0002 to 1.5 µg/mL, 6 days of culture, compared to control hIgG-PBD", "method": "(§1) LRRC15-positive human osteosarcoma cell line HuO9 (JCRB) was seeded in 10% FBS-containing RPMI medium at 5 x 10^3 cells/50 μL/well, LRRC15-positive human melanoma cell line Hs294T was seeded in 10% FBS and 20 ng/mL TGFβ1-containing RPMI medium at 5 x 10^3 cells/50 μL/well, or, as a negative control, LRRC15-negative HEK293α was seeded in 10% FBS-containing RPMI medium at 2 x 10^3 cells/50 μL/well in a 96-well plate, and cultured overnight under conditions of 37°C and 5% CO2. The next day, the three types of hR024-drug conjugates (clone names of […]-PBD, […]-V1-PBD, and […]-V2-PBD) prepared in Example 5 and the control hIgG-PBD were diluted at a common ratio of 3 to a final concentration of 0.0002 (μg/mL) from 1.5 (μg/mL) and added. After 6 days of culture, the number of viable cells was measured by quantification of ATP using CellTiter-Glo 2.0 Assay (Promega)."}, "[2]": {"test_system": "LRRC15-positive human osteosarcoma cell line HuO9", "assay": "In vitro cell growth inhibitory activity (CellTiter-Glo 2.0)", "format": "cell-based", "conditions": "0.0002 to 1.5 µg/mL, 6 days of culture, compared to control hIgG-PBD", "method": "as §1"}, "LRRC15-negative HEK293α": {"test_system": "LRRC15-negative HEK293α", "assay": "In vitro cell growth inhibitory activity (CellTiter-Glo 2.0), negative control cells", "format": "cell-based", "conditions": "0.0002 to 1.5 µg/mL, 6 days of culture, compared to control hIgG-PBD", "method": "as §1"}, "[3]": {"test_system": "LRRC15-positive human osteosarcoma cell line HuO9", "assay": "In vivo antitumor effect, HuO9 subcutaneous transplant model", "conditions": "tail vein, on Day 10, female SCID mice", "method": "The antitumor effects of the antibody-drug conjugates were evaluated by using animal models in which cells of the human tumor cell line had been transplanted into immunodeficient mice. 4 to 6 Week-old SCID mice (CB17/Icr-Prkdc[scid]/CrlCrlj, Jackson Laboratory Japan, Inc.) were habituated for 3 days or more under SPF conditions before experimental use. The mice were fed with sterilized solid feed (FR-2, Funabashi Farms Co., Ltd.) and given sterilized tap water (prepared by adding a solution of 5 to 15 ppm sodium hypochlorite). The major and minor diameters of the transplanted tumors were measured twice a week with an electronic digital caliper ([…] Corporation), and the estimated tumor volume was calculated using the following formula. Estimated tumor volume (mm^3) = 1/2 × major diameter (mm) × [minor diameter (mm)]^2 All antibody-drug conjugates were diluted with ABS and administered into the tail vein at doses shown in each Example. In addition, ABS (vehicle) or control hIgG-PBD prepared in Reference Example 4 was administered as the control group, in a similar manner. 5 to 6 Mice were used per group in the experiment. Based on publicly known information, LRRC15-positive human osteosarcoma cell line HuO9 (JCRB) was suspended in Matrigel (Corning Incorporated), 5.0 × 10^6 cells were subcutaneously transplanted into the right flank of female SCID mice (Day 0), and random grouping was performed on Day 10. On the day of grouping, the vehicle, the antibody-drug conjugates […]-PBD, […]-V1-PBD, and […]-V2-PBD prepared in Example 5, or the control hIgG-PBD prepared in Reference Example 4 was administered at a dose of 0.4 mg/kg, and the huM25-MMAE prepared in Reference Example 5 was administered at a dose of 0.4 mg/kg or 3.6 mg/kg into the tail vein. The abscissa indicates the number of days, and the ordinate indicates estimated tumor volume, and the error bars indicate SEM values. […] The antitumor effects of the antibody-drug conjugates were evaluated by using animal models in which cells of a human tumor cell line had been transplanted into immunodeficient mice, or cells of a mouse tumor cell line had been transplanted into immunocompetent mice. 4 to 6 Week-old SCID mice (CB17/Icr-Prkdc[scid]/CrlCrlj, Jackson Laboratory Japan, Inc.), NSG mice (NOD.Cg-Prkdcscid Il2rgtm1Wjl/SzJ, Jackson Laboratory Japan, Inc.), or B6J mice (C57BL/6J, Jackson Laboratory Japan, Inc.) were habituated for 3 days or more under SPF conditions before experimental use. The mice were fed with sterilized solid feed and given sterilized tap water. The major and minor diameters of the transplanted tumors were measured twice a week with an electronic digital caliper (Mitutoyo Corporation), and the estimated tumor volume was calculated using the following formula. Estimated tumor volume (mm^3) = 1/2 × major diameter (mm) × [minor diameter (mm)]^2 All antibody-drug conjugates were diluted with ABS and administered into the tail vein at doses shown in each Example. In addition, ABS (vehicle) or control hIgG-PBD prepared in Reference Example 4 was administered as the control group, in a similar manner. 5 to 6 Mice were used per group in the experiment. Based on publicly known information, LRRC15-positive human osteosarcoma cell line HuO9 (JCRB) was suspended in Matrigel (Corning Incorporated), 5.0 × 10^6 cells were subcutaneously transplanted into the right flank of female SCID mice (Day 0), and random grouping was performed on Day 10. On the day of grouping, a vehicle, the antibody-drug conjugate […]-V1-PBD or […]-V2-PBD prepared in Example 5, or huM25-PBD prepared in Reference Example 6-2 was administered into the tail vein at a dose of 0.3 mg/kg. The abscissa indicates the number of days, and the ordinate indicates estimated tumor volume, and the error bars indicate SEM values."}, "[4]": {"conditions": "0.4 mg/kg, huM25-MMAE at 0.4 mg/kg or 3.6 mg/kg"}, "[5]": {"conditions": "0.3 mg/kg, huM25-PBD at the same dose"}},
  "data": [
    {"molecule": "H02L01-PBD (conjugate) heavy: EVQLVESGGGLVQPGGSLRLSCAASGFTFRDYYMAWVRQAPGKGLEWVSSIGFDESRTYYADSVKGRFTISRDDSKNTLYLQMNSLRAEDTAVYYCARHGVSYYSGDNWFAYWGQGTLVTVSSASTKGPSVFPLAPSSKSTSGGTAALGCLVKDYFPEPVTVSWNSGALTSGVHTFPAVLQSSGLYSLSSVVTVPSSSLGTQTYICNVNHKPSNTKVDKKVEPKSCDKTHTCPPCPAPEAAGGPSVFLFPPKPKDTLMISRTPEVTCVVVDVSHEDPEVKFNWYVDGVEVHNAKTKPREEQYNSTYRVVSVLTVLHQDWLNGKEYKCKVSNKALAAPIEKTISKAKGQPREPQVYTLPPSREEMTKNQVSLTCLVKGFYPSDIAVEWESNGQPENNYKTTPPVLDSDGSFFLYSKLTVDKSRWQQGNVFSCSVMHEALHNHYTQKSLSLSPGK light: DIQMTQSPSSLSASVGDRVTITCKSSQGLLYSGDQKNYLAWYQQKPGKAPKLLIYWASTRQSGVPSRFSGSGSGTDFTLTISSLQPEDFATYYCQQYYDPPYTFGQGTKVEIKRTVAAPSVFIFPPSDEQLKSGTASVVCLLNNFYPREAKVQWKVDNALQSGNSQESVTEQDSKDSTYSLSSTLTLSKADYEKHKVYACEVTHQGLSSPVTKSFNRGEC", "values": [
      {"measurement": "inhibitory activity against cell growth", "setting": "[1]", "value": "inhibited tumor cell proliferation when added at a lower concentration"},
      {"measurement": "inhibitory activity against cell growth", "setting": "[2]", "value": "inhibited tumor cell proliferation when added at a lower concentration"},
      {"measurement": "inhibitory activity against cell growth", "setting": "LRRC15-negative HEK293α", "value": "growth inhibitory activity equivalent to that of the control hIgG-PBD"},
      {"measurement": "antitumor effect (estimated tumor volume)", "setting": "[3]; [4]", "value": "antitumor activity higher than that of the vehicle, the control hIgG-PBD, and huM25-MMAE"}
    ]},
    {"molecule": "H02L01-V2-PBD (conjugate) heavy: EVQLVESGGGLVQPGGSLRLSCAASGFTFRDYYMAWVRQAPGKGLEWVSSIGFDESRTYYADSVKGRFTISRDDSKNTLYLQMNSLRAEDTAVYYCARHGVSRYSGDNWFAYWGQGTLVTVSSASTKGPSVFPLAPSSKSTSGGTAALGCLVKDYFPEPVTVSWNSGALTSGVHTFPAVLQSSGLYSLSSVVTVPSSSLGTQTYICNVNHKPSNTKVDKKVEPKSCDKTHTCPPCPAPEAAGGPSVFLFPPKPKDTLMISRTPEVTCVVVDVSHEDPEVKFNWYVDGVEVHNAKTKPREEQYNSTYRVVSVLTVLHQDWLNGKEYKCKVSNKALAAPIEKTISKAKGQPREPQVYTLPPSREEMTKNQVSLTCLVKGFYPSDIAVEWESNGQPENNYKTTPPVLDSDGSFFLYSKLTVDKSRWQQGNVFSCSVMHEALHNHYTQKSLSLSPGK light: DIQMTQSPSSLSASVGDRVTITCKSSQGLLYSGDQKNYLAWYQQKPGKAPKLLIYWASTRQSGVPSRFSGSGSGTDFTLTISSLQPEDFATYYCQQYYDPPYTFGQGTKVEIKRTVAAPSVFIFPPSDEQLKSGTASVVCLLNNFYPREAKVQWKVDNALQSGNSQESVTEQDSKDSTYSLSSTLTLSKADYEKHKVYACEVTHQGLSSPVTKSFNRGEC", "values": [
      {"measurement": "inhibitory activity against cell growth", "setting": "[1]", "value": "inhibited tumor cell proliferation when added at a lower concentration"},
      {"measurement": "inhibitory activity against cell growth", "setting": "[2]", "value": "inhibited tumor cell proliferation when added at a lower concentration"},
      {"measurement": "inhibitory activity against cell growth", "setting": "LRRC15-negative HEK293α", "value": "growth inhibitory activity equivalent to that of the control hIgG-PBD"},
      {"measurement": "antitumor effect (estimated tumor volume)", "setting": "[3]; [5]", "value": "antitumor activity higher than that of the vehicle and huM25-PBD"},
      {"measurement": "tumor regression", "setting": "[3]; 0.4 mg/kg", "value": "lead to tumor regression"},
      {"measurement": "antitumor effect (estimated tumor volume)", "setting": "[3]; [4]", "value": "antitumor activity higher than that of the vehicle, the control hIgG-PBD, and huM25-MMAE"}
    ]},
    {"molecule": "H02L01-V1-PBD (conjugate) heavy: EVQLVESGGGLVQPGGSLRLSCAASGFTFRDYYMAWVRQAPGKGLEWVSSIGFDESRTYYADSVKGRFTISRDDSKNTLYLQMNSLRAEDTAVYYCARHGVSKYSGDNWFAYWGQGTLVTVSSASTKGPSVFPLAPSSKSTSGGTAALGCLVKDYFPEPVTVSWNSGALTSGVHTFPAVLQSSGLYSLSSVVTVPSSSLGTQTYICNVNHKPSNTKVDKKVEPKSCDKTHTCPPCPAPEAAGGPSVFLFPPKPKDTLMISRTPEVTCVVVDVSHEDPEVKFNWYVDGVEVHNAKTKPREEQYNSTYRVVSVLTVLHQDWLNGKEYKCKVSNKALAAPIEKTISKAKGQPREPQVYTLPPSREEMTKNQVSLTCLVKGFYPSDIAVEWESNGQPENNYKTTPPVLDSDGSFFLYSKLTVDKSRWQQGNVFSCSVMHEALHNHYTQKSLSLSPGK light: DIQMTQSPSSLSASVGDRVTITCKSSQGLLYSGDQKNYLAWYQQKPGKAPKLLIYWASTRQSGVPSRFSGSGSGTDFTLTISSLQPEDFATYYCQQYYDPPYTFGQGTKVEIKRTVAAPSVFIFPPSDEQLKSGTASVVCLLNNFYPREAKVQWKVDNALQSGNSQESVTEQDSKDSTYSLSSTLTLSKADYEKHKVYACEVTHQGLSSPVTKSFNRGEC", "values": [
      {"measurement": "inhibitory activity against cell growth", "setting": "[1]", "value": "inhibited tumor cell proliferation when added at a lower concentration"},
      {"measurement": "inhibitory activity against cell growth", "setting": "[2]", "value": "inhibited tumor cell proliferation when added at a lower concentration"},
      {"measurement": "inhibitory activity against cell growth", "setting": "LRRC15-negative HEK293α", "value": "growth inhibitory activity equivalent to that of the control hIgG-PBD"},
      {"measurement": "antitumor effect (estimated tumor volume)", "setting": "[3]; [5]", "value": "antitumor activity higher than that of the vehicle and huM25-PBD"},
      {"measurement": "tumor regression", "setting": "[3]; 0.4 mg/kg", "value": "lead to tumor regression"},
      {"measurement": "antitumor effect (estimated tumor volume)", "setting": "[3]; [4]", "value": "antitumor activity higher than that of the vehicle, the control hIgG-PBD, and huM25-MMAE"}
    ]}
  ]
}
